{
  "source": "patent US11447566B2",
  "about": "“Anti-tissue factor antibodies, antibody-drug conjugates, and related methods” (Iconic Therapeutics, Inc., priority 2018, dated 2022)",
  "key": {"[1]": {"biological_target": "T1, human, rat and chimeric human-rat TF constructs expressed on HEK293 cells (Homo sapiens, UniProt P13726, D177Q/N170G/R168K/S174T)", "T1 construct": "expressed in transfected cells; host or cells: HEK293", "T1 sequence (P13726 33-295 R168K/N170G/S174T/D177Q)": "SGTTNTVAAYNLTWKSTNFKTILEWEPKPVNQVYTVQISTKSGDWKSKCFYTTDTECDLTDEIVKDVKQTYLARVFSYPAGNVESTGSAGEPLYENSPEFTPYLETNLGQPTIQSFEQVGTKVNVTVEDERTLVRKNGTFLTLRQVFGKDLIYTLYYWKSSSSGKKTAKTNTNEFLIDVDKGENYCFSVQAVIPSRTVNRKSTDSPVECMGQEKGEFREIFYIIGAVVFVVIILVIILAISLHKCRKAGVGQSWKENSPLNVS", "test": "Live cell staining assay on chimeric TF constructs (epitope binning)", "assay_type": "cell-based", "settings": "construct h133-145_r (4), human segment replaced by rat segment", "method": "(§1) To establish binding of the anti-human TF antibodies to the various TF constructs, HEK293 cells were transfected with a DNA plasmid that co-expresses the TF construct and a green fluorescent protein marker. […] Two days after transfection, cells were collected from the tissue culture plate, stained with 15 μg/ml of the indicated anti-TF antibody, washed, stained with anti-human IgG-Fc Alexa Fluor 647 polyclonal antibody, washed, and stained with the viability dye 4′,6-Diamidino-2-Phenylindole, Dihydrochloride. Upon acquisition of 80,000 live events on a flow cytometer, live cells marked with the fluorescent marker were analyzed for the degree of staining by the anti-TF antibody. […] As used herein, the term “live cell staining assay” refers to the antibody binding assay used in this example.\n(§2) When “Percentage antibody binding to TF construct relative to hTF” in Tables 51 and 52 was less than 50%, the antibody was considered a non-binder (0) in Tables 53 and 54.\n(§3) Each antibody was assigned to an epitope bin in Table 55 based on the combination of unbound constructs from Table 53."}, "[2]": {"biological_target": "T2, human, rat and chimeric human-rat TF constructs expressed on HEK293 cells (Homo sapiens, UniProt P13726, D76N/F108L/F82T/G75R/K100N/K73R/L104E/Q101W/S79Y/T72D/Y83G)", "T2 construct": "expressed in transfected cells; host or cells: HEK293", "T2 sequence (P13726 33-295 T72D/K73R/G75R/D76N/S79Y/F82T/Y83G/K100N/Q101W/L104E/F108L)": "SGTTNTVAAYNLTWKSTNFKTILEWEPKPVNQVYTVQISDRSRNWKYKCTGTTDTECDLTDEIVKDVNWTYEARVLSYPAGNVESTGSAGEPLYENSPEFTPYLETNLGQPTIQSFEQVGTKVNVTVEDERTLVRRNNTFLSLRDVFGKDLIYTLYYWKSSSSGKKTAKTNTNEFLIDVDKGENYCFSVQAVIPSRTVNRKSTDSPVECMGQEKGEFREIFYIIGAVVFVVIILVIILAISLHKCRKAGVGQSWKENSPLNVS", "test": "Live cell staining assay on chimeric TF constructs (epitope binning)", "assay_type": "cell-based", "settings": "construct h39-77_r (11), human segment replaced by rat segment", "method": "as §1, §2, §3"}, "[3]": {"biological_target": "T3, human, rat and chimeric human-rat TF constructs expressed on HEK293 cells (Homo sapiens, UniProt P13726, N170G/R168K)", "T3 construct": "expressed in transfected cells; host or cells: HEK293", "T3 sequence (P13726 33-295 R168K/N170G)": "as the sequence (P13726 33-295 R168K/N170G/S174T/D177Q) above, with T142S, Q145D counted along it", "test": "Live cell staining assay on chimeric TF constructs (epitope binning)", "assay_type": "cell-based", "settings": "construct h133-139_r (2), human segment replaced by rat segment", "method": "as §1, §2, §3"}, "[4]": {"biological_target": "T4, human, rat and chimeric human-rat TF constructs expressed on HEK293 cells (Homo sapiens, UniProt P13726, I184G/K181N/T186I/W190R/Y188T)", "T4 construct": "expressed in transfected cells; host or cells: HEK293", "T4 sequence (P13726 33-295 K181N/I184G/T186I/Y188T/W190R)": "as the sequence (P13726 33-295 R168K/N170G/S174T/D177Q) above, with K136R, G138N, T142S, Q145D, K149N, I152G, T154I, Y156T, W158R counted along it", "test": "Live cell staining assay on chimeric TF constructs (epitope binning)", "assay_type": "cell-based", "settings": "construct h146-158_r (5), human segment replaced by rat segment", "method": "as §1, §2, §3"}, "[5]": {"biological_target": "T5, human, rat and chimeric human-rat TF constructs expressed on HEK293 cells (Homo sapiens, UniProt P13726, K100N)", "T5 construct": "expressed in transfected cells; host or cells: HEK293", "T5 sequence (P13726 33-295 K100N)": "as the sequence (P13726 33-295 R168K/N170G/S174T/D177Q) above, with K68N, K136R, G138N, T142S, Q145D counted along it", "test": "Live cell staining assay on chimeric TF constructs (epitope binning)", "assay_type": "cell-based", "settings": "construct hTF_K68N", "method": "as §1, §2, §3"}, "[6]": {"tested_on": "human thrombin generation (relipidated TF, normal pooled plasma)", "test": "Thrombin generation assay (TGA)", "assay_type": "biochemical", "settings": "100 nM antibody, Example 18", "method": "(§4) The TGA assay was performed using the calibrated-automated-thrombogram (CAT) instrument manufactured and distributed by STAGO. The test method design was equivalent to a standard CAT assay measurement, except that the plasma source was NPP in citrate/CTI. […] Relipidated TF was added to a 96-well assay plate, followed by addition of the antibody/NPP mixture. After a 10-min incubation or directly after combining the relipidated TF with antibody/NPP, thrombin generation was initiated by the addition of calcium and the thrombin substrate. The STAGO software was used to report the following parameters: Peak IIa (highest thrombin concentration generated [nM]); Lag Time (time to IIa generation [min]); ETP (endogenous thrombin potential, area under the curve [nM×min]); and ttPeak (time to Peak IIa [min]).\nas §4, with “was normal pooled plasma (NPP)” for “was NPP”, “in citrate supplemented with corn trypsin inhibitor (citrate/CTI).” for “in citrate/CTI.”\nTGA assay was performed using the calibrated-automated-thrombogram (CAT) instrument manufactured and distributed by STAGO (Diagnostica Stago SAS, Asnieres sur Seine, France). […] The anti-TF antibodies were titrated at 0, 10, 50 and 100 nM and mixed with NPP in citrate/CTI. Relipidated TF was added to a 96-well assay plate, followed by addition of the antibody/NPP mixture. After a 10-min incubation or directly after combining the relipidated TF with antibody/NPP, thrombin generation was initiated by the addition of calcium and the thrombin substrate. The STAGO software was used to report the following parameters: Peak IIa (highest thrombin concentration generated on the thrombin generation curve [nM]); Lag Time (time from assay start to the moment 10 nM of thrombin is formed [min]); ETP (endogenous thrombin potential, area under the curve [nM×min]); and ttPeak (time from assay start to Peak IIa [min]). […] As used herein, the term “thrombin generation assay” (TGA) refers to the TGA used in this example."}, "[7]": {"biological_target": "T6, human TF on MDA-MB-231 cells (25A3-Alexa488 binding) (Homo sapiens, UniProt P13726)", "T6 construct": "TF-positive MDA-MB-231 cells (ATCC, Manassas, Va., USA); host or cells: MDA-MB-231", "T6 sequence (P13726 33-295)": "as the sequence (P13726 33-295 R168K/N170G/S174T/D177Q) above, with K136R, G138N, T142S, Q145D counted along it", "test": "Antibody competition assay with 25A3", "settings": "pre-incubation with unlabeled competitor antibody", "method": "(§5) Alexa Fluor antibodies were generated using Alexa Fluor 488 5-sulfo-[…] esters (ThermoFisher Scientific) following manufacturer's protocol. Excess Alexa Fluor dye was removed from the antibody dye conjugate preparations by gel filtration (ThermoFisher Scientific).\n(§6) After another 1 hr incubation on ice, cells were washed, stained with a viability dye, and analyzed by flow cytometry. The Alexa488 fluorescence data from viable cells was summarized using median fluorescence intensity."}, "[8]": {"biological_target": "T7, TF:FVIIa on MDA-MB-231 cells (Homo sapiens, UniProt P13726)", "T7 construct": "MDA-MB-231 cells (ATCC, Manassas, Va., USA) were plated; host or cells: MDA-MB-231", "T7 sequence (P13726 33-295)": "as the sequence (P13726 33-295 R168K/N170G/S174T/D177Q) above, with K136R, G138N, T142S, Q145D counted along it", "test": "FXa conversion assay", "assay_type": "cell-based", "settings": "concentrations of 25, 50, and 100 nM; FIG. 14A", "experimental": "To evaluate the ability of TF:FVIIa to convert FX into FXa in the presence of human antibodies against TF, 5×10^4 MDA-MB-231 cells (ATCC, Manassas, Va., USA) were plated into tissue culture-treated black 96-well plates (Greiner Bio-One, Monroe, N.C., USA). […] Upon reconstitution of the binary TF:FVIIa complex with a final concentration of 20 nM of FVIIa, cells were incubated for 5 min at 37° C.\nBriefly, 5×10^4 MDA-MB-231 cells (ATCC, Manassas, Va., USA) were plated into tissue culture-treated black 96-well plates (Greiner Bio-One, Monroe, N.C., USA) and cultured overnight. […] Upon reconstitution of the binary TF:FVIIa complex with a final concentration of 20 nM of FVIIa, cells were incubated for 5 min at 37° C."}, "[9]": {"biological_target": "T8, human TF on MDA-MB-231 cells (43D7-Alexa488 binding) (Homo sapiens, UniProt P13726)", "T8 construct": "TF-positive MDA-MB-231 cells (ATCC, Manassas, Va., USA); host or cells: MDA-MB-231", "T8 sequence (P13726 33-295)": "as the sequence (P13726 33-295 R168K/N170G/S174T/D177Q) above, with K136R, G138N, T142S, Q145D counted along it", "test": "Antibody competition assay with 43D7", "settings": "pre-incubation with unlabeled competitor antibody", "method": "as §5, §6"}, "[10]": {"biological_target": "T9, human TF on MDA-MB-231 cells (39A-Alexa488 binding) (Homo sapiens, UniProt P13726)", "T9 construct": "TF-positive MDA-MB-231 cells (ATCC, Manassas, Va., USA); host or cells: MDA-MB-231", "T9 sequence (P13726 33-295)": "as the sequence (P13726 33-295 R168K/N170G/S174T/D177Q) above, with K136R, G138N, T142S, Q145D counted along it", "test": "Antibody competition assay with 39A", "settings": "pre-incubation with unlabeled competitor antibody", "method": "as §5, §6"}, "[11]": {"biological_target": "T10, human TF on MDA-MB-231 cells (FVII-Fc binding) (Homo sapiens, UniProt P13726)", "T10 construct": "TF-positive MDA-MB-231 cells (ATCC, Manassas, Va., USA); host or cells: MDA-MB-231", "T10 sequence (P13726 33-295)": "as the sequence (P13726 33-295 R168K/N170G/S174T/D177Q) above, with K136R, G138N, T142S, Q145D counted along it", "test": "FVIIa competition assay", "settings": "highest concentration of antibody; FIG. 14B", "experimental": "To evaluate competition between FVIIa and the human antibodies against TF, TF-positive MDA-MB-231 cells (ATCC, Manassas, Va., USA) were first incubated for 1 hr on ice with a titration of the human antibodies against TF. Subsequently, a final concentration of 20 nM of FVII-Fc conjugated to Alexa488 was added to the antibody cell mixture. After another 1 hr incubation on ice, cells were washed, stained with a viability dye, and analyzed by flow cytometry. The Alexa488 fluorescence data from viable cells was summarized using median fluorescence intensity.\nSubsequently, FVII-Fc conjugated to Alexa488 was added to the antibody-cell mixture at a final concentration of 20 nM. After another 1 hr incubation on ice, cells were washed, stained with a viability dye, and analyzed by flow cytometry. The Alexa488 fluorescence data from viable cells was summarized using median fluorescence intensity (MFI)."}},
  "data": [
    {"substance": "TF-011 [reference compound]", "values": [
      {"measurement": "Antibody binding to TF construct", "setting": "[1]", "result": "1 (between 50% and 150%, the antibody was considered a binder (1))"},
      {"measurement": "Antibody binding to TF construct", "setting": "[2]", "result": "0 (less than 50%, the antibody was considered a non-binder (0))"},
      {"measurement": "Antibody binding to TF construct", "setting": "[3]", "result": "1 (between 50% and 150%, the antibody was considered a binder (1))"},
      {"measurement": "Antibody binding to TF construct", "setting": "[4]", "result": "1 (between 50% and 150%, the antibody was considered a binder (1))"},
      {"measurement": "Antibody binding to TF construct", "setting": "[5]", "result": "1 (between 50% and 150%, the antibody was considered a binder (1))"},
      {"measurement": "reduction of the peak IIa concentration", "setting": "[6]; 10 min antibody pre-incubation", "result": 91, "unit": "%"},
      {"measurement": "reduction of the peak IIa concentration", "setting": "[6]; without antibody pre-incubation", "result": 91, "unit": "%"},
      {"measurement": "% 25A3 binding", "setting": "[7]", "result": "did not reduce"},
      {"measurement": "inhibition of FX conversion", "setting": "[8]", "result": "57-59%"},
      {"measurement": "% 43D7 binding", "setting": "[9]", "result": "did not reduce"},
      {"measurement": "% 39A binding", "setting": "[10]", "result": "reduced"},
      {"measurement": "competition with FVII", "setting": "[11]", "result": "effectively competed"}
    ]}
  ]
}
